Results from patent US20180312557A1, “Leg1 Protein, Leg1 Gene, and Uses and Drugs thereof” (ZHEJIANG UNIVERSITY, priority 2016, published 2018).

Experiments:
[1] = mLeg1-Re protein in liver of mLeg1Δ/Δ mice after intragastric administration (co-immunoprecipitation); format: in vivo, mouse; conditions: two hours after the intragastric administration
From the text: (§1) In order to further verify this hypothesis, the inventors administered the mLeg1-Re protein to the mLeg1^Δ/Δ mice by intragastric administration, and detected, by the method of co-immunoprecipitation, whether the mLeg1-Re protein could reach the liver and bind to EGFR in the liver.

[2] = test system: Akt phosphorylation of the HepG2 cells; test: Akt phosphorylation of HepG2 cells incubated with recombinant mLeg1-Re, alone or with wild-type mLeg1; format: cell-based, human
Experimental: 23.3 The extracted recombinant protein mLeg1-Re and the wild type mLeg1 protein were used to incubate the HepG2 cells, and then the Akt phosphorylation level of the HepG2 cell was detected. As to the details, reference can be made to step 18.2.2.
The partially purified wild-type mLeg1 protein (50 ng) was mixed with excess mLeg1-Re protein (500 ng) for 10 minutes, and then used to incubate HepG2 cell for 10 minutes, and then the Akt phosphorylation level was detected in these cells. […] It is highly likely attributed to the fact that the mLeg1-Re protein is also capable of competitively binding to the EGFR, thereby blocking the ability of the wild-type mLeg1 to bind to the EGFR and activate downstream Akt.

EGFR = target: T1, EGFR (Mus musculus, UniProt Q01279); test: EGFR pulled down with mLeg1-Re from liver after intragastric administration (co-immunoprecipitation); format: in vivo; conditions: liver of mLeg1Δ/Δ mice, two hours after the intragastric administration
T1 construct: from tissue; host or cells: liver of mLeg1^Δ/Δ mice
From the text: as §1

[3] = Body weight increase of wild type mice on high-fat diet with intragastric mLeg1-Re; format: in vivo, mouse; conditions: 20 μg intragastric every day, one month
Experimental: 23.4 10-weeks old wild type mice having the similar body weight (t1) were randomly divided into 3 groups with 3 to 4 mice in each group. The wild type mice were fed with high-fat diet and intragrastric administration with 20 μg of mLeg1-Re protein every day, which served as mLeg1-Re administration experimental group. Another group of wild type mice of the same age were fed with the same high-fat diet and intragrastric administration with the same amount of bovine serum albumin (BSA) every day, which served as BSA administration control group. The left group of wild type mice at the same age were fed with the same standard chow diet, which served as another control group. One month later, the body weight (t2) of these mice were measured, and the results were represented by increased body weight […]. The experiment was repeated twice, and the final body weight changes (i.e., increased body weight) were averaged.

B1: mLeg1-Re protein: modification-defective recombinant mLeg1 protein expressed in an Escherichia coli expression system (protein)
chain: EVSDSSDPYPPLWEDSPEQLSDYMMEDGNYIINPWVYTDRMGMYRILLEETAMYFAKYGPENEQNLLWGLPLQFGWQYQSGRLADPTGMTDCGNELNESLCVSVDSWWADINYYLSVIPFLAAVDSGITGISPNQITILPPPKDQMRFCYNVSDCQSAVPGTMNRWRDFFQYMQLNSSDFDGLLNYLWEAHASSLDYPTSAFGDRYNFYSEKEANFEENWAIAVNYLAAARLPTTQNRTYSFQRGLPPRVLVDTDIAPFIPDFTPLQNEVLVSLKLLGDTDRNSGSLSLTLWENLMSTKLARTLFLKAFEEFLATSS
modifications: left off: small tags and cut ends
notes: modification-defective recombinant mLeg1 protein expressed in an Escherichia coli expression system
- mLeg1-Re protein in the liver [1]: could be detected in the liver
- ability to induce Akt phosphorylation ([2]; HepG2 incubated with mLeg1-Re alone): lost the ability to induce Akt phosphorylation
- ability of the mLeg1 protein to activate Akt ([2]; HepG2 incubated with mLeg1-Re for 10 minutes first, then mLeg1 added): completely inhibited
- inhibition of mLeg1-induced Akt phosphorylation ([2]; mLeg1 (50 ng) mixed with excess mLeg1-Re (500 ng) for 10 minutes, then HepG2 10 minutes): cannot inhibit the functions of the mLeg1 protein
- EGFR in the protein pulled down by the mLeg1 antibody (EGFR): significant EGFR protein level could be detected
- body weight increase compared with BSA control group [3]: significantly lower
- body weight increase compared with mice fed standard chow diet [3]: almost the same as that of the mice fed with standard chow diet
